T1: Abp1, P15891
T1 sequence (P15891 535-592, looked up): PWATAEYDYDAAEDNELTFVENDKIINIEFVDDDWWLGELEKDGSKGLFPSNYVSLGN

T2: Bbc1, P47068
T2 sequence (P47068 1-78, looked up): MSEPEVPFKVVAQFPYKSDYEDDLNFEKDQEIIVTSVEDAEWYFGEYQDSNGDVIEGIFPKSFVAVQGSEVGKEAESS

T3: Boi1, P38041
T3 sequence (P38041 1-86, looked up): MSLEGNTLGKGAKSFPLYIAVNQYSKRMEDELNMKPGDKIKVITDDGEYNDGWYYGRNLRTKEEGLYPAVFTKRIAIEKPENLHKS

T4: Boi2, P39969
T4 sequence (P39969 32-116, looked up): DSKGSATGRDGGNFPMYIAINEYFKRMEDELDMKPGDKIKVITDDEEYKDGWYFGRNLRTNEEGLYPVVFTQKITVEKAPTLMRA

T5: Bud14, P27637
T5 sequence (P27637 247-328, looked up): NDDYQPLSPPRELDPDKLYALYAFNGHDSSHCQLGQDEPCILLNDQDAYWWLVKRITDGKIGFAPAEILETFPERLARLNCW

T6: Bzz1-1, P38822
T6 sequence (P38822 478-572, looked up): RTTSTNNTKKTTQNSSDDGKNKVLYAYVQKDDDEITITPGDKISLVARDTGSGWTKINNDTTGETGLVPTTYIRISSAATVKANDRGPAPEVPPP

T7: Bzz1-2, P38822
T7 sequence (P38822 568-633, looked up): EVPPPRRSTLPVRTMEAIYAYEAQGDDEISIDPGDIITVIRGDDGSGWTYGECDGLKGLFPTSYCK

T8: Cdc25, P04821
T8 sequence (P04821 50-136, looked up): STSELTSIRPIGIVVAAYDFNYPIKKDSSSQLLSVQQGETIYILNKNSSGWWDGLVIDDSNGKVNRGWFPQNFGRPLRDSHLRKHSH

T9: Cyk3, Q07533
T9 sequence (Q07533 1-83, looked up): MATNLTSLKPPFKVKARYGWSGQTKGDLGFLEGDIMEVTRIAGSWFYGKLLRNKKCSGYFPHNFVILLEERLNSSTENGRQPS

T10: Fus1, P11710
T10 sequence (P11710 432-512, looked up): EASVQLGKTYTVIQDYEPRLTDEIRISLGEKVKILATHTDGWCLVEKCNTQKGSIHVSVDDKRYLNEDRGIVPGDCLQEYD

T11: Hof1, Q05080
T11 sequence (Q05080 590-669, looked up): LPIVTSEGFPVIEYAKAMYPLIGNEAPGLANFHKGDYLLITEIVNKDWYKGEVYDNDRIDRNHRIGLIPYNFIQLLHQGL

T12: Hse1, P38753
T12 sequence (P38753 208-285, looked up): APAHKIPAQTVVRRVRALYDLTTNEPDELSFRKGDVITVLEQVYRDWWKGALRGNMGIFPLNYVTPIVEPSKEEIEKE

T13: Lsb1, P53281
T13 sequence (P53281 45-122, looked up): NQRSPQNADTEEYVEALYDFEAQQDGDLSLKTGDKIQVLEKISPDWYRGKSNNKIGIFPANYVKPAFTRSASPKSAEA

T14: Lsb3, P43603
T14 sequence (P43603 385-451, looked up): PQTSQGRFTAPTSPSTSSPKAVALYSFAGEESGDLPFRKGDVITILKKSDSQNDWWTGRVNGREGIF

T15: Lsb4, P32793
T15 sequence (P32793 402-468, looked up): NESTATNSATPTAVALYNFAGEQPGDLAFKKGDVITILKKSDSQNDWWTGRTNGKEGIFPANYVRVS

T16: Myo5, Q04439
T16 sequence (Q04439 1072-1160, looked up): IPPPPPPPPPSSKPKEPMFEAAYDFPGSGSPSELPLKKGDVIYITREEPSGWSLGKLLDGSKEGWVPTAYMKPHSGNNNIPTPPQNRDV

T17: Nbp2, Q12163
T17 sequence (Q12163 103-180, looked up): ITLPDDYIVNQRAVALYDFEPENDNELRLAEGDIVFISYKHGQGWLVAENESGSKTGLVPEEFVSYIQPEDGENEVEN

T18: Pex13, P80667
T18 sequence (P80667 295-386, looked up): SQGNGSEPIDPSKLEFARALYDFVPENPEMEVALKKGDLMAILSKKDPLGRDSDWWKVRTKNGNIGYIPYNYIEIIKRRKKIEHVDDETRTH

T19: Pin3, Q06449
T19 sequence (Q06449 53-122, looked up): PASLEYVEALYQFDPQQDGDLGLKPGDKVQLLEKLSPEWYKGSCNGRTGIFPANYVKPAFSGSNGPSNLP

T20: Sla1-2, P32790
T20 sequence (P32790 60-140, looked up): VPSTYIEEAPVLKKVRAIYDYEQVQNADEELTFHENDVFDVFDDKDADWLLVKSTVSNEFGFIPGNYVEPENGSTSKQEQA

T21: Sla1-3, P32790
T21 sequence (P32790 344-424, looked up): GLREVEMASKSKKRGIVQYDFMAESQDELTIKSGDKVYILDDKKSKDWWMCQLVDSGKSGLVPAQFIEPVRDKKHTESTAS


Assays:
Assay in all cases: SPOT array
[1] = biological target: T1, Abp1, P15891; details: median of control spots 935
[2] = biological target: T2, Bbc1, P47068; details: median of control spots 796
[3] = biological target: Bem1-1, P29366; details: median of control spots 4282
Chain of Bem1-1, P29366 (P29366 55-141): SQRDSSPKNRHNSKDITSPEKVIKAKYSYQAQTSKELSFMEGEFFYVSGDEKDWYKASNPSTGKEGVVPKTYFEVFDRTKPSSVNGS

[4] = biological target: Bem1-2, P29366; details: median of control spots 4347
Chain of Bem1-2, P29366 (P29366 139-227): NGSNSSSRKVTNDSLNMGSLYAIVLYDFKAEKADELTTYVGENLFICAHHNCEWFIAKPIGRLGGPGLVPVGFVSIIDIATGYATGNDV

[5] = biological target: T3, Boi1, P38041; details: median of control spots 1162
[6] = biological target: T4, Boi2, P39969; details: median of control spots 1161
[7] = biological target: T5, Bud14, P27637; details: median of control spots 956
[8] = biological target: T6, Bzz1-1, P38822; details: median of control spots 4446
[9] = biological target: T7, Bzz1-2, P38822; details: median of control spots 4538
[10] = biological target: T8, Cdc25, P04821; details: median of control spots 969
[11] = biological target: T9, Cyk3, Q07533; details: median of control spots 1451
[12] = biological target: T10, Fus1, P11710; details: median of control spots 1200
[13] = biological target: GST; details: median of control spots 978
[14] = biological target: T11, Hof1, Q05080; details: median of control spots 4086
[15] = biological target: T12, Hse1, P38753; details: median of control spots 1727
[16] = biological target: T13, Lsb1, P53281; details: median of control spots 388
[17] = biological target: T14, Lsb3, P43603; details: median of control spots 406
[18] = biological target: T15, Lsb4, P32793; details: median of control spots 397
[19] = biological target: Myo3, P36006; details: median of control spots 468
[20] = biological target: T16, Myo5, Q04439; details: median of control spots 471
[21] = biological target: T17, Nbp2, Q12163; details: median of control spots 357
[22] = biological target: T18, Pex13, P80667; details: median of control spots 1341
[23] = biological target: T19, Pin3, Q06449; details: median of control spots 2171
[24] = biological target: Rvs167, P39743; details: median of control spots 2707
Chain of Rvs167, P39743 (P39743 419-482): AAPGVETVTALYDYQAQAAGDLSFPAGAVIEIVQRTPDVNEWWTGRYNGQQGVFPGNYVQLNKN

[25] = biological target: Sho1, P40073; details: median of control spots 1148
Chain of Sho1, P40073 (P40073 287-367): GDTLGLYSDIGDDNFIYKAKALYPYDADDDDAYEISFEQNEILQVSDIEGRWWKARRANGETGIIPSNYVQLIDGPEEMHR

[26] = biological target: T20, Sla1-2, P32790; details: median of control spots 712
[27] = biological target: T21, Sla1-3, P32790; details: median of control spots 5475

| Binder | SPOT intensity [1] | SPOT intensity [2] | SPOT intensity [3] | SPOT intensity [4] | SPOT intensity [5] | SPOT intensity [6] | SPOT intensity [7] | SPOT intensity [8] | SPOT intensity [9] | SPOT intensity [10] | SPOT intensity [11] | SPOT intensity [12] | SPOT intensity [13] | SPOT intensity [14] | SPOT intensity [15] | SPOT intensity [16] | SPOT intensity [17] | SPOT intensity [18] | SPOT intensity [19] | SPOT intensity [20] | further results |
| --- | --- | --- | --- | --- | --- | --- | --- | --- | --- | --- | --- | --- | --- | --- | --- | --- | --- | --- | --- | --- | --- |
| PHNPSPFFPPPDFND | 0 | 0 | 0 | 0 | 0 | 0 | 0 | 0 | 0 | 0 | 0 | 0 | 0 | 0 | 0 | 0 | 0 | 0 | 319 | 244 | SPOT intensity [21]: 0; SPOT intensity [22]: 70; SPOT intensity [23]: 0; SPOT intensity [24]: 0; SPOT intensity [25]: 0; SPOT intensity [26]: 0; SPOT intensity [27]: 0 |
| ERPKRRAPPPVPKKP | 673 | 282 | 0 | 279 | 0 | 0 | 0 | 160 | 791 | 4 | 0 | 0 | 0 | 0 | 57 | 326 | 188 | 89 | 358 | 180 | SPOT intensity [21]: 58; SPOT intensity [22]: 62; SPOT intensity [23]: 11; SPOT intensity [24]: 10; SPOT intensity [25]: 311; SPOT intensity [26]: 0; SPOT intensity [27]: 2610 |
| PKRRAPPPVPKKPSS | 648 | 354 | 0 | 389 | 2 | 1 | 1 | 650 | 3420 | 3 | 1 | 6 | 2 | 8 | 368 | 1740 | 346 | 182 | 342 | 119 | SPOT intensity [21]: 650; SPOT intensity [22]: 41; SPOT intensity [23]: 11; SPOT intensity [24]: 44; SPOT intensity [25]: 399; SPOT intensity [26]: 0; SPOT intensity [27]: 3500 |
| KRRAPPPVPKKPSSR | 626 | 233 | 1 | 961 | 2 | 1 | 9 | 1320 | 4500 | 9 | 4 | 10 | 3 | 6 | 412 | 1850 | 389 | 150 | 454 | 144 | SPOT intensity [21]: 751; SPOT intensity [22]: 47; SPOT intensity [23]: 14; SPOT intensity [24]: 165; SPOT intensity [25]: 370; SPOT intensity [26]: 0; SPOT intensity [27]: 4640 |
